Data: patent US20260176365A1 (SYNTHEKINE, published 2026)

T1: hGP130-his (Sino Biological, Catalog# 10974) (human, UniProt P40189 23-619)
T1 construct: Bought reagent; also called extracellular domain of gp130; not shown: C-terminal poly-His tag
T1 sequence: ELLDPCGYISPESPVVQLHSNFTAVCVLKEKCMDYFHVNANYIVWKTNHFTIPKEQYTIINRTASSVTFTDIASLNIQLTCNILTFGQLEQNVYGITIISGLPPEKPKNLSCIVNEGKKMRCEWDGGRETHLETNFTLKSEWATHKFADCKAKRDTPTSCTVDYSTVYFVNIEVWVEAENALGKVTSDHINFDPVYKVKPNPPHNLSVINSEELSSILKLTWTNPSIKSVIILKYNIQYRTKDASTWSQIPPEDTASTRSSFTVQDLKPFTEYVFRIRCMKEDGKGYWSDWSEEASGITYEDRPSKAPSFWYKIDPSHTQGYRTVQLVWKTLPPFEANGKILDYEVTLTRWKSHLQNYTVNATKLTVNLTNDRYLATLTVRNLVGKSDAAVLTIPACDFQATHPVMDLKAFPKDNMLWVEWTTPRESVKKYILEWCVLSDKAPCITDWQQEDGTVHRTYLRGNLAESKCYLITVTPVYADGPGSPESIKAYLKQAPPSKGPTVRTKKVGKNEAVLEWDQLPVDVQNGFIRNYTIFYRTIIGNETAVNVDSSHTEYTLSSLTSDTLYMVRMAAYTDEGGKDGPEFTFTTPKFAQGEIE

B1: DR594 Mono-Fc VHH (Fc fusion)
chain: QVQLQESGGGSVQAGGSLRLSCVASASTYCTYDMHWYRQAPGKGREFVSAIDSDGTTRYADSVKGRFTISQGTAKNTVYLQMNSLQPEDTAMYYCKTVCVVGSRWSDYWGQGTQVTVSS
notes: Mono-Fc format is not described further; also called anti-hGP130 Mono-Fc VHH; not shown: Fc part of the Mono-Fc format
B2: DR593 Mono-Fc VHH (Fc fusion)
chain: QVQLQESGGGSVQAGGSLRLSCAASGYPYSNGYMGWFRQAPGKEREGVATIYTGDGRTYYADSVKGRFTISRDNAKNTVDLQMSSLKPEDTAMYYCAARAAPLYSSGSPLTRARYNVWGQGTQVTVSS
notes: as for B1
B3: DR596 Mono-Fc VHH (Fc fusion)
chain: QVQLQESGGGLVQPGGSLRLSCTASGLTFDDSVMGWFRQAPGKGREAVSCISSSGANAFYADSVKGRFTISRDNAKNTLYLQMNSLKPEDTATYYCKRGHACAGYYPIPYDDYWGQGTQVTVSS
notes: as for B1
B4: DR592 Mono-Fc VHH (Fc fusion)
chain: QVQLQESGGGSVQAGGSLRLSCTAPGFTSNSCGMDWYRQAPGKEREFVSSISTDGTTGYADSVKGRFTISKDKAKDTVYLQMNSLKPEDTGMYSCKTKDGTIATMELCDFGYWGQGTQVTVSS
notes: as for B1
B5: DR591 Mono-Fc VHH (Fc fusion)
chain: QVQLQESGGGSVQAGGSLRLSCTASGAIASGYIDSRWCMAWFRQAPGKEREGVAAIWPGGGLTVYADSVKGRFTISRDHAKNTLYLQMNNLKPEDTAMYYCAAGSPRMCPSLEFGFDYWGQGTQVTVSS
notes: as for B1
B6: DR595 Mono-Fc VHH (Fc fusion)
chain: QVQLQESGGGSVQAGGSLTLSCAASEYAYSTCNMGWYRQAPGKERELVSAFISDGSTYYADSVKGRFTITRDNAKNTVYLQMNSLKPEDTAIYYCSANCYRRLRNYWGQGTQVTVSS
notes: as for B1

molecular target: T1, hGP130-his (Sino Biological, Catalog# …); assay: SPR (Biacore T200), Mono-Fc VHH captured on Protein A chip, hGP130-his in solution, 1:1 fit
Protocol: A representative example from each hgp130 VHH and mgp130 VHH clonotype generated in accordance with Examples 1-3 was selected for evaluation of binding via SPR as follows. […] All experiments were conducted in 10 mM Hepes, 150 mM NaCl, 0.05% (v/v) Polysorbate 20 (PS20) and 3 mM EDTA (HBS-EP+ buffer) on a Biacore T200 instrument equipped with a Protein A derivatized sensor chip (Cytiva). Mono-Fc VHH ligands were flowed at 5 μl/min for variable time ranging from 18 to 300 seconds, reaching the capture loads listed in the tables below. Following ligand capture, […], typically comprising at least five concentrations between 1 μM and 1 nM, were performed in either high performance or single cycle kinetics mode. Surface regeneration was achieved by flowing 10 mM glycine-HCl, pH 1.5 (60 seconds, 50 μL/min). Buffer-subtracted sensograms were processed with Biacore T200 Evaluation Software and globally fit with a 1:1 Langmuir binding model (bulk shift set to zero) to extract kinetics and affinity constants (kₐ, kd, KD). RMAX<100 RU indicates surface density compatible with kinetics analysis. Calculated Rₘₐₓ values were generated using the equation: Rₘₐₓ=Load (RU)×valency of ligand×(Molecular weight of analyte/Molecular weight of ligand). Surface activity was defined as the ratio of experimental/calculated Rmax.

Kd [nM] | koff [s⁻¹] | kon [M⁻¹ s⁻¹] | Binder
58 | 0.0095 | 160000 | B1
82 | 0.021 | 250000 | B2
44 | 0.0082 | 190000 | B3
38 | 0.0059 | 160000 | B4
33 | 0.0019 | 59000 | B5
41 | 0.0073 | 180000 | B6
